{"source": "paper PMC10543594", "key": {"[1]": {"biological_target": "SARS-CoV-2 Alpha variant spike ectodomain fused to resistin (SARS-CoV-2 | human) (UniProt P0DTC2)", "experiment": "SEC-MALS"}, "[2]": {"biological_target": "SARS-CoV-2 Delta spike ectodomain without trimerization domain (SARS-CoV-2) (UniProt P0DTC2)"}}, "data": [{"substance": "SARS-CoV-2 Alpha variant spike ectodomain fused to resistin (from UniProt P0DTC2 14-1213)", "values": [{"measurement": "stoichiometry N", "setting": "[1]", "value": 6}]}, {"substance": "SARS-CoV-2 Delta spike ectodomain without trimerization domain (from UniProt P0DTC2 14-1213) (domain or fragment)", "values": [{"measurement": "percent trimeric", "setting": "[2]", "value": "30 to 50", "unit": "%"}]}]}
